Test results published in the supplement of paper PMC11246515.
± gives the standard deviation of the averaged measurements.

Test: total protein half-life in vivo (active degradation + dilution); higher = more stable protein
[1] = E. coli NCM3722 delta-clpP delta-lon delta-hslV, growth: N-lim chemostat, doubling time 6 h
[2] = wild type E. coli NCM3722, growth: C-lim chemostat, doubling time 3 h
[3] = wild type E. coli NCM3722, growth: C-lim chemostat, doubling time 12 h
[4] = wild type E. coli NCM3722, growth: N-lim chemostat, doubling time 6 h
[5] = wild type E. coli NCM3722, growth: N-lim chemostat, doubling time 12 h
[6] = wild type E. coli NCM3722, growth: P-lim chemostat, doubling time 12 h
[7] = E. coli NCM3722 delta-clpP, growth: N-lim chemostat, doubling time 6 h
[8] = E. coli NCM3722 delta-hslV, growth: N-lim chemostat, doubling time 6 h
[9] = E. coli NCM3722 delta-lon, growth: N-lim chemostat, doubling time 6 h
[10] = E. coli NCM3722 delta-smpB, growth: N-lim chemostat, doubling time 6 h
[11] = wild type E. coli NCM3722, growth: C-lim chemostat, doubling time 6 h
[12] = wild type E. coli NCM3722, growth: P-lim chemostat, doubling time 6 h

Row | Sequence | total protein half-life in vivo [1] | total protein half-life in vivo [2] | total protein half-life in vivo [3] | total protein half-life in vivo [4] | total protein half-life in vivo [5] | total protein half-life in vivo [6] | total protein half-life in vivo [7] | total protein half-life in vivo [8] | total protein half-life in vivo [9] | total protein half-life in vivo [10] | total protein half-life in vivo [11] | total protein half-life in vivo [12]
1 | MVFRIASSPYTHNQRQTSRIMLLVLLAAVPGIAAQLWFFGWGTLVQILLASVSALLAEALVLKLRKQSVAATLKDNSALLTGLLLAVSIPPLAPWWMVVLGTVFAVIIAKQLYGGLGQNPFNPAMIGYVVLLISFPVQMTSWLPPHEIAVNIPGFIDAIQVIFSGHTASGGDMNTLRLGIDGISQATPLDTFKTSVRAGHSVEQIMQYPIYSGILAGAGWQWVNLAWLAGGVWLLWQKAIRWHIPLSFLVTLALCAMLGWLFSPETLAAPQIHLLSGATMLGAFFILTDPVTASTTNRGRLIFGALAGLLVWLIRSFGGYPDGVAFAVLLANITVPLIDYYTRPRVYGHRKG | 7.06 h | > 4 h | 13 ± 0.93 h | 6.53 h | 9.64 h | 13 ± 1.1 h | – | – | – | – | – | –
2 | MNYQNDDLRIKEIKELLPPVALLEKFPATENAANTVAHARKAIHKILKGNDDRLLVVIGPCSIHDPVAAKEYATRLLALREELKDELEIVMRVYFEKPRTTVGWKGLINDPHMDNSFQINDGLRIARKLLLDINDSGLPAAGEFLDMITPQYLADLMSWGAIGARTTESQVHRELASGLSCPVGFKNGTDGTIKVAIDAINAAGAPHCFLSVTKWGHSAIVNTSGNGDCHIILRGGKEPNYSAKHVAEVKEGLNKAGLPAQVMIDFSHANSSKQFKKQMDVCADVCQQIAGGEKAIIGVMVESHLVEGNQSLESGEPLAYGKSITDACIGWEDTDALLRQLANAVKARRG [P0AB91] | 3.65 ± 0.43 h | 3.18 ± 0.28 h | 10.3 ± 0.25 h | 3.02 ± 0.048 h | 3.98 ± 0.2 h | 10.3 ± 0.3 h | 2.92 ± 0.049 h | 2.76 ± 0.068 h | 3.62 ± 0.64 h | 3.01 ± 0.16 h | 5.81 ± 0.16 h | 5.41 ± 0.039 h
3 | MRSPICHLFSAINSSPFKIAPEKEQDLKTIVDDKKIIISVVSEPGFNIRVRKNESNNSHEIVLTVASLEYIWAFSNFFWVFTQEYSKSQKNNDEHFDLTGKNRLKKSDELLKWARKNLQTTGCESWPKKCPKPEAYLQGSEDSQVASEIFLCAIAWILHHEISHVVLQHPLVTTAFSTQEEREADSHATKWILGNLYESAPELKKRALGIATAVLCIQSLEVENYFCLQNTHPAAYERIYSNISCYPVGNEELIEALCTVMLQYLFHGKNINVNLDGESFSSILGDLLCDISRLTSN | 4.49 ± 0.37 h | – | – | – | – | – | – | – | – | 1.26 h | – | –
4 | MSPCKLLPFCVALALTGCSLAPDYQRPAMPVPQQFSLSQNGLVNAADNYQNAGWRTFFVDNQVKTLISEALVNNRDLRMATLKVQEARAQYRLTDADRYPQLNGEGSGSWSGNLKGNTATTREFSTGLNASFDLDFFGRLKNMSEAERQNYLATEEAQRAVHILLVSNVAQSYFNQQLAYAQLQIAEETLRNYQQSYAFVEKQLLTGSSNVLALEQARGVIESTRSDIAKRQGELAQANNALQLLLGSYGKLPQAQTVNSDSLQSVKLPAGLSSQILLQRPDIMEAEHALMAANANIGAARAAFFPSISLTSGISTASSDLSSLFNASSGMWNFIPKIEIPIFNAGRNQANLDIAEIRQQQSVVNYEQKIQNAFKEVADALALRQSLNDQISAQQRYLASLQITLQRARALYQHGAVSYLEVLDAERSLFATRQTLLDLNYARQVNEISLYTALGGG | 6.75 h | – | > 16 h | 6.34 ± 0.14 h | 12.47 ± 0.09 h | 13.07 ± 0.062 h | – | – | 5.11 ± 0.78 h | 5.15 ± 2.9 h | 7.18 h | 6.29 ± 0.17 h
5 | MNKTEFYADLNRDFNALMAGETSFLATLANTSALLYERLTDINWAGFYLLEDDTLVLGPFQGKIACVRIPVGRGVCGTAVARNQVQRIEDVHVFDGHIACDAASNSEIVLPLVVKNQIIGVLDIDSTVFGRFTDEDEQGLRQLVAQLEKVLATTDYKKFFASVAG | 4.82 ± 0.66 h | 3.22 ± 0.55 h | 11.8 ± 3.1 h | 4.33 ± 0.57 h | 7.72 ± 0.91 h | 9.9 ± 0.11 h | 4.43 ± 0.32 h | 4 ± 0.26 h | 4.523 ± 0.034 h | 4.22 ± 0.21 h | 5.38 ± 0.12 h | 5.8 ± 0.83 h
6 | MKFWRPGITGKLFLAIFATCIVLLISMHWAVRISFERGFIDYIKHGNEQRLQLLSDALGEQYAQHGNWRFLRNNDRFVFQILRSFEHDNSEDKPGPGMPPHGWRTQFWVVDQNNKVLVGPRAPIPPDGTRRPILVNGAEVGAVIASPVERLTRNTDINFDKQQRQTSWLIVALATLLAALATFLLARGLLAPVKRLVDGTHKLAAGDFTTRVTPTSEDELGKLAQDFNQLASTLEKNQQMRRDFMADISHELRTPLAVLRGELEAIQDGVRKFTPETVASLQAEVGTLTKLVDDLHQLSMSDEGALAYQKAPVDLIPLLEVAGGAFRERFASRGLKLQFSLPDSITVFGDRDRLMQLFNNLLENSLRYTDSGGSLQISAGQRDKTVRLTFADSAPGVSDDQLQKLFERFYRTEGSRNRASGGSGLGLAICLNIVEAHNGRIIAAHSPFGGVSITVELPLERDLQREV | 6.52 ± 0.079 h | 3.33 ± 0.098 h | 11.3 ± 2.3 h | 6.23 ± 0.92 h | 12.9 ± 0.13 h | 12.1 ± 1.4 h | 6.22 ± 0.26 h | 6.4 ± 0.69 h | 6.08 ± 0.73 h | 5.49 ± 0.43 h | – | 6.86 ± 0.52 h
7 | MAAIAFIGLGQMGSPMASNLLQQGHQLRVFDVNAEAVRHLVDKGATPAANPAQAAKDAEFIITMLPNGDLVRNVLFGENGVCEGLSTDALVIDMSTIHPLQTDKLIADMQAKGFSMMDVPVGRTSANAITGTLLLLAGGTAEQVERATPILMAMGSELINAGGPGMGIRVKLINNYMSIALNALSAEAAVLCEALNLPFDVAVKVMSGTAAGKGHFTTSWPNKVLSGDLSPAFMIDLAHKDLGIALDVANQLHVPMPLGAASREVYSQARAAGRGRQDWSAILEQVRVSAGMTAKVKM [P0A9V8] | – | > 4 h | – | – | – | – | – | – | – | – | 4.77 ± 1.8 h | –
8 | MAKNTSCGVQLRIRGKVQGVGFRPFVWQLAQQLNLHGDVCNDGDGVEVRLREDPETFLVQLYQHCPPLARIDSVEREPFIWSQLPTEFTIRQSTGGTMNTQIVPDAATCPACLAEMNTPGERRYRYPFINCTHCGPRFTIIRAMPYDRPFTVMAAFPLCPACDKEYRDPLDRRFHAQPVACPECGPHLEWVSHGEHAEQEAALQAAIAQLKMGKIVAIKGIGGFHLACDARNSNAVATLRARKHRPAKPLAVMLPVADGLPDAARQLLTTPAAPIVLVDKKYVPELCDDIAPDLNEVGVMLPANPLQHLLLQELQCPLVMTSGNLSGKPPAISNEQALADLQGIADGFLIHNRDIVQRMDDSVVRESGEMLRRSRGYVPDALALPPGFKNVPPVLCLGADLKNTFCLVRGEQAVLSQHLGDLSDDGIQMQWREALRLMQNIYDFTPQYVVHDAHPGYVSSQWAREMNLPTQTVLHHHAHAAACLAEHQWPLDGGDVIALTLDGIGMGENGALWGGECLRVNYRECEHLGGLPAVALPGGDLAAKQPWRNLLAQCLRFVPEWQNYSETASVQQQNWSVLARAIERGINAPLASSCGRFFDAVAAALGCAPATLSYEGEAACALEALAASCHGVTHPVTMPRVDNQLDLATFWQQWLNWQAPVNQRAWAFHDALAQGFAALMREQATMRGITTLVFSGGVIHNRLLRARLAHYLADFTLLFPQSLPAGDGGLSLGQGVIAAARWLAGEVQNG | – | – | 9.74 ± 2.4 h | – | – | – | – | – | – | – | – | –
9 | MIFSDWPWRHWRQVRGETIALRLNDEQLNWRELCARVDELASGFAVQGVVEGSGVMLRAWNTPQTLLAWLALLQCGARVLPVNPQLPQPLLEELLPNLTLQFALVPDGENTFPALTSLHIQLVEGAHAATWQPTRLCSMTLTSGSTGLPKAAVHTYQAHLASAQGVLSLIPFGDHDDWLLSLPLFHVSGQGIMWRWLYAGARMTVRDKQPLEQMLAGCTHASLVPTQLWRLLVNRSSVSLKAVLLGGAAIPVELTEQAREQGIRCFCGYGLTEFASTVCAKEADGLADVGSPLPGREVKIVNNEVWLRAASMAEGYWRNGQLVSLVNDEGWYATRDRGEMHNGKLTIVGRLDNLFFSGGEGIQPEEVERVIAAHPAVLQVFIVPVADKEFGHRPVAVMEYDHESVDLSEWVKDKLARFQQPVRWLTLPPELKNGGIKISRQALKEWVQRQQ | – | 3.2 h | 11.3 ± 1.4 h | 4.4 h | – | 10.3 ± 1 h | 4.96 h | 3.92 h | – | – | > 8 h | 6.327 ± 0.016 h
